The data set concerns the target Sp-1 human recombinant protein (Promega) (Homo sapiens, UniProt P08047 1-785). Nature of the data set: EMSA. A general note: Mobility shift assays separate free from complexed probe on a gel.

Sp-1 human recombinant protein (Promega), sequence (P08047 whole entry): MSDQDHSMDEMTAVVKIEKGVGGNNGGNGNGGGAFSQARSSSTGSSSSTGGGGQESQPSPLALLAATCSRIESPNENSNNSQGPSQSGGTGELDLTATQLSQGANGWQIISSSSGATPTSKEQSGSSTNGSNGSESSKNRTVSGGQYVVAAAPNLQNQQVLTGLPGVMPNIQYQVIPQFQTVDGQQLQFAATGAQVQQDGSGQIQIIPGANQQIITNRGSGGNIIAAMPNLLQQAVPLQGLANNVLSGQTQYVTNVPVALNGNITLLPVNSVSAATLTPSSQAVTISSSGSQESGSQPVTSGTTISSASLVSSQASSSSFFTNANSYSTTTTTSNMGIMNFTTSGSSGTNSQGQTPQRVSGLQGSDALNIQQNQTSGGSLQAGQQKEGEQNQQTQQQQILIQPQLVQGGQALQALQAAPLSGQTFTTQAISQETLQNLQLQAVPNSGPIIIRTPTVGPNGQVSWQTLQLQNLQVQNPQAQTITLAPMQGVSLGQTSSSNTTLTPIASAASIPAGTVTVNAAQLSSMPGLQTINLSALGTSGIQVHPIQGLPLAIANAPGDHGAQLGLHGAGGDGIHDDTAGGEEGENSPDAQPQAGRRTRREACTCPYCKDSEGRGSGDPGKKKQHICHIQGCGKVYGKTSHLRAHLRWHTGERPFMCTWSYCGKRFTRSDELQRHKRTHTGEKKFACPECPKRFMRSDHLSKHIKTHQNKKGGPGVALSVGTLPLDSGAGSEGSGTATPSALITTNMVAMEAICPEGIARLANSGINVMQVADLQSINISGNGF

B1: Sp-1 probe (ER alpha promoter) (dsDNA)
DNA 1: TCGTGCGCCCCCGCCCCCTGGCCGTG
DNA 2: CACGGCCAGGGGGCGGGGGCGCACGA
Turning to B1, the binding result is recorded as “binds”.
